Reference: paper PMC1817651, “Ets-2 and C/EBP-beta are important mediators of ovine trophoblast Kunitz domain protein-1 gene expression in trophoblast”

The binders below were run against T1, ovEts-2-GST fusion (Ovis aries, UniProt A0ACI6RFA5 364-444) (assay: competition EMSA; 250-fold excess vs N1; EMSA: 35 fmol probe, 2 ug Ets-2-GST or 10 ug JEG-3 extract, buffer per cited ref 23; pull-down: extract in 25 mM Tris-HCl pH 7.5, 150 mM NaCl, 0.5% Triton X-100, 0.5 mM DTT, 4 C overnight). Conditions: protein: recombinant; tags: GST; blunt; only sense strand given.
T1 sequence (A0ACI6RFA5 entry or part of it): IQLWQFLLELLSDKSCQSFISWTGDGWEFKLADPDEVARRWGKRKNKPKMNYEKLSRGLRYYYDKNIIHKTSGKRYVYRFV

Binder	binding result
TKDP-1/5 (dsDNA) DNA 1: CAGTGTGTCCATCCTCAGCATCCTCAGGAGCCCTC DNA 2: GAGGGCTCCTGAGGATGCTGAGGATGGACACACTG	no binding
TKDP-1/4 (dsDNA) DNA 1: CTGATCTCACGACTCAGCCAGAATATTAAAAGCTC DNA 2: GAGCTTTTAATATTCTGGCTGAGTCGTGAGATCAG	no binding
TKDP-1/1 (dsDNA) DNA 1: ACAGATGCAGGAGGCATGGG DNA 2: CCCATGCCTCCTGCATCTGT	no binding
TKDP-1/6 (dsDNA) DNA 1: AGGAGCCCTCCTGCAAGGCC DNA 2: GGCCTTGCAGGAGGGCTCCT	no binding
TKDP-1/3 (dsDNA) DNA 1: TCCTCCCCTTGCCCACTCCCCTCCTTATCACCTGATCTCACGACTCA DNA 2: TGAGTCGTGAGATCAGGTGATAAGGAGGGGAGTGGGCAAGGGGAGGA	no binding
TKDP-1/2 (dsDNA) DNA 1: CATGGGTAGGTAGGGAGGTTATGCAATAAACAGGACTGACTCAACTCCTCC DNA 2: GGAGGAGTTGAGTCAGTCCTGTTTATTGCATAACCTCCCTACCTACCCATG	no binding

What follows are binders tested against T1, ovEts-2-GST fusion (assay: EMSA; anti-Ets-2 supershift; EMSA: 35 fmol probe, 2 ug Ets-2-GST or 10 ug JEG-3 extract, buffer per cited ref 23; pull-down: extract in 25 mM Tris-HCl pH 7.5, 150 mM NaCl, 0.5% Triton X-100, 0.5 mM DTT, 4 C overnight). Conditions: protein: recombinant; tags: GST; label: 32P; blunt; only sense strand given.

Binder	binding result
Ets-2 consensus (dsDNA) DNA 1: CTAGGACCGGAAGTGGGAGT DNA 2: ACTCCCACTTCCGGTCCTAG	binds
